# Reference: article PMC10720262 (Cell Reports, 2023)
# Target: recombinant full-length PfCSP (Plasmodium falciparum circumsporozoite protein, strain NF54) (Plasmodium falciparum NF54, UniProt P19597)
# Sequence (P19597 20-375): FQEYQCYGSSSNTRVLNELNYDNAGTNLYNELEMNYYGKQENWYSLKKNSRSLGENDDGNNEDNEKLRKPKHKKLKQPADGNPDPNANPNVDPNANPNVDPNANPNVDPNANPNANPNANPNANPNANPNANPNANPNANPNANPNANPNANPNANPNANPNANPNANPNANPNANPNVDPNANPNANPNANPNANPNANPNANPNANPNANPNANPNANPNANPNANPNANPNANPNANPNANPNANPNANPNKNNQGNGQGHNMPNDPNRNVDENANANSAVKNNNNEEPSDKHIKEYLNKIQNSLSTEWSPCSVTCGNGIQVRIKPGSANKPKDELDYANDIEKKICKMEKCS
row,Binder,binding result
1,"CL-511905 (antibody, V domains shown) VH: QVQLVESGGGVVQPGRSLRLSCAASGFTFSGSGMHWVRQAPGRGLEWVAIIWYDGSHKYYVDSVQGRFIISRDNSKNTLYLEMNSLRVEDTAVYYCVRAYPSGSSNDKYGMDVWGQGTTVTVSS VL: not shown",binds
2,"CL-511073 (antibody, V domains shown) VH: QVQLVESGGGVVQPGRSLRLSCAASGFSFSSHGMHWVRQAPGKGLEWVSIIWYDGSNKFYADSVKGRFTISRDNSKNTLYLQMNSLRAEDTAVYYCARDGYDVLTGHYNWFDPWGQGTLVTVSS VL: EIVMTQSPATLSVSPGERATLSCRASQSVSSKLAWYQQKPGQAPRLLIYGASTRATGIPARFSGSGSGTDFTLTISSLQSEDFAVYYCQQYNNWWTFGHGTKVEIK",binds
3,"CL-512459 (antibody, V domains shown) VH: QVQLVESGGGVVQPGRSLRLSCTASGFTFSDYGMHWVRQAPGKGLEWVSIIWYDGSKKYYADSVQGRFTISRDNSKNTLYLQMSSLRAEDTAVYYCARAYGSGSYYTFNYWGQGTLVTVSS VL: EIVMTQSPATLSVSPGERATLSCRASQSVNSNLAWYQQKPGQAPRLLIYGASTRATGFPARFIGSGSGTDFTLTINSLQSEDFAVYYCQQYNHWWTFGQGTKVEIK",binds
4,"CL-512469 (antibody, V domains shown) VH: QMQLVESGGGVVQPGRSLTLSCEASGFTFSNYGMHWVRQAPGKGLEWVAIIWFDGSHRFYADAVEGRFTISRDNSKNTLFLQMTSLRAEDAAVYYCARVGQFSSSSWGAFDIWGQGTVVTVSS VL: EIVLTQSPGTLSLSPGESVTLSCRASQIISNTHLAWYQQKPGQAPSLLIYGASSRATGIPDRFSGSGSGTDFTLTISRLEPEDFAVYYCQQYGRLWTFGQGTKVEIK",binds
5,"CL-511771 (antibody, V domains shown) VH: QVQLVESGGGVVQPGRSLRLSCAASGFTFSNSGMHWVRQAPGKGLEWVAIIWYDGSNKYYAESMKGRFTISRDNSKNTLYLQMNSLRAEDTAVYYCARDGTTNAFDLWGQGTMVTVSP VL: not shown",binds
6,"CL-511776 (antibody, V domains shown) VH: QVQLVESGGGVVQPGRSLTLSCAASGFTFSNFGMHWVRQAPGKGLEWMAVIWYDGNNEFYADSVKGRFTISRDNSKNMLYLHMNSLRAEDTAIYYCAREGDYSASGSHWLFDPWGQGTQVTVSS VL: DIQMTQSPSTLSASVGDSITITCRASQSINIWLAWYQQKPGKAPNLLIYKASSLESGVPSRFSGSGSGTEFTLTINSLQPDDFATYYCQQYNNYVTFGGGTKVEIK",binds
7,"CL-512508 (antibody, V domains shown) VH: QVQLVESGGGVVQPGTSLRLSCGASGFTFSSYGMHWVRQAPGKGLEWVAIIWYDGNNKYYADSVKGRFTISRDNSKNTLYLQMNSLRAEDTAVYYCAKVGQFSTSSWGAFDIWGQGTMVTVSS VL: EIVLTQSPGTLPLSPGERATLSCRASQSVSSSQLAWYQQKPGQAPRLLIYGASSRATAIPDRFSGSGSGTDFTLTISRLEPEDFAVYYCQQYSRLWTFGQGTKVEIK",binds
8,"CL-512191 (antibody, V domains shown) VH: QVQLVESGGGVVQPGRSLRLSCAASGFTFSNYAMHWVRQAPGKGLEWVAVIWYDGSNKYYADSVKGRFTISRDDSKNTLYLQMNSLRAEDTAVYYCARDKGYRYGFNWFDPWGQGTLVTVSS VL: QSVLTQPPSVSGAPGQRVTISCTGSSSNIGAGYDVHWYQKLPGTAPKLLIFSNSNRPSGVPDRFSGSKSGTSASLAITGLQAEDEADYYCQSYDSSLSGSRVFGGGTKLTVL",binds
9,"CL-512374 (antibody, V domains shown) VH: QVQLVESGGGVVQPGRSLRLSCAASGFTFSSYGMHWVRQAPGKGLEWVAVIWYDGSNKYYADSVKGRFTISRDNSKNTLYLQMNSLRAEDTAVYYCARDGGGTTRSFDLWGRGTLVTVSS VL: QSVLTQPPSVSGAPGQRVTISCTGSSSNIGAGYDVHWYQQLPGTAPKLLIYGNSNRPSGVPDRFSGSKSGTSASLAITGLQAEDEADYYCQSYDSSLSGSMFGGGTKLTVL",binds
10,"CL-512023 (antibody, V domains shown) VH: QVQLMESGGGVVQPGRSLRLSCEASGFTFSNSGMHWVRQAPGKGLEWVAIIWYDGSNRYYVDSVKGRFTISRDNSKNTLYLQMNSLRAEDTAVYYCARDGGNRYGYGWFDSWGQGTLVTVSS VL: QSVLTQPPSVSGAPGQRVTISCTGSSSNIGAGYDVHWYQQLPGTAPKLLIYGNTNRPSGVPDRFSGSKSGTSASLAITGLQAEDEADYYCQSYDSSLGGSRRVFGGGTKLTVL",binds
11,"CL-512206 (antibody, V domains shown) VH: QVQLVESGGGVVQPGRSLRLSCAASGFTFSHYGMHWVRQAPGKGLEWVAVIWYDGNNKFYADSVKGRFTISRDNSNNTLYLQMNSLRAEDTAVYHCVRERTGATSRGFDFWGQGTLVTVSS VL: QSVLTQPPSVSAAPGQKVTISCSGSDSNIEKYYVSWYQQLPGSAPKLLIYDNNKRPSGIPDRFSGSKSGTSATLGITGLQTGDEAVYYCGTWDSSLSTGVFGGGTKLTVL",binds
12,"CL-512296 (antibody, V domains shown) VH: QVQLVESGGGVVQPGRSLRLSCAASGFTFSNYGMHWVRQAPGKGLEWVAVIWYDGSKKFYADSVMGRFTISRDNSKNTLVLQMNSLGAEDTAVYYCARDRGYSGYVFDYWGQGTLVTVSS VL: QSALTQPASVSGSPGQSIAISCTGTSSDVGGYNFVSWYRHHPGKAPKLMIYDVSNRPSGVSNRFSGSKSGNTASLTISGLQAEDEADYYCCSYAGSCSVFGGGTKLTVL",binds
13,"CL-510700 (antibody, V domains shown) VH: QVQLVESGGGVVQPGRSLRLSCAASGFTFSDFGMHWVRQTPGKGLEWVAIIWYDGSNKFYADSVKGRFTISRDNSKNTLFLQMNSLRAEDTAVYYCARSGVYYGSGSHFDYWGQGTLVTVSS VL: DIQMTQSPSTLSASVGDRVTITCRASQSISSWLAWYQLKPGKAPKLLIYKASNLETGVPLRFSGSGSGTEFTLTISSLQPDDFATYYCQQYNSYLTFGQGTKVEIK",binds
14,"CL-511026 (antibody, V domains shown) VH: QVQLVESGGGVVQPGRSLRLSCAASGFTFSNFGMHWVRQAPDRGLEWVSIIWYDGSNKFYADSVKGRFTISRDNSKNTLFLQMDSLRAEDTAVYYCAKAEMRTSDYYNYGMDVWGQGTTVTVSS VL: DIQMTQSPSTLSASVGDRVTITCRASQSISSWLAWYQQKPGKAPKLLIYKASSLESGVPSRFSGSGSATEFTLTIRSLQPDDFATYYCQQYYSYWTFGQGTKVEIN",binds
15,"CL-511862 (antibody, V domains shown) VH: QVQLVESGGGVVQPGKSLRLSCAASGFSFSSSGMHWVRQAPDKGLEWVAIIWYDGSHKFYADSVKGRFTISRDNSDNTLFLQMDSLRAEDTAVYYCVRAYPTSYNGNYDKYGMDVWGQGTTVTVSS VL: DIQMTQSPSTLSASVGDRVTIACRASQSISTWLAWYQQKPGKAPKLLIYKASTLESGVPSRFSGSGSGTEFTLTISSLQPDDFATYYCQQFTFYWTFGQGTKVEIK",binds
16,"CL-512275 (antibody, V domains shown) VH: QVQLVESGGGVVQPGGSFRLSCETSGFTFSNFGMHWVRQAPGKGLEWVALIWYDGSHKFYADSLTGRFTISRDNSKNTLYLQMNSLRVEDTAVYYCARAHSVTTANDKYGTDVWGQGTTVTVSP VL: DIQMTQSPSTLSASVGDRVTITCRASQSISSWLAWYQHKPGRAPKLLIYKASSLESGIPSRFSGSGSGTEFTLTISSLQPDDFATYFCQQYNSYWTFGQGTKVEIK",binds
17,"CL-512264 (antibody, V domains shown) VH: QVQLVESGGGVVQPGRSLRLSCVTSGFTFSNFGMHWVRQAPGKGLEWVAIIWYDGSNKFYADSLKGRFTISRDNSKNTLFLQMNSLRAEDTAVYYCARAHTVTTANDKYGTDVWGQGTTVTVSS VL: DIQMTQSPSTLSASVGDRVTITCRASQSISSWLAWYQHKPGKAPKLLIYKASSLESGVPSRFSGSGSGTEFTLTISSLQPDDFATYFCQQYNSYWTFGQGTKVEIK",binds
18,"CL-511296 (antibody, V domains shown) VH: QVQLVASGGGVVQPGRSQRLSCAASGFTFSNYGMHWVRQSPGRGLEWVAIIWYDGSNKFYADSVKGRFTISRDNSRNTLFLQMNSLRAEDTAIYYCAKSEERTSDNYFKYGMDVWGQGTTVIVST VL: DIQMTQSPSTLSASVGDRVTITCRASQSISSWLAWYQQKPGKAPKLLIYKASNLESGVPSRFSGSGSGTEFTLSISNLQPDDFATYFCQQYTSYWTFGQGTKVEIK",binds
19,"CL-512761 (antibody, V domains shown) VH: QVQLVESGGGVVQPGTSLRLSCAASGFTFSNYGMHWVRQAPGKGLEWVSITWYDESNKFYADSVKGRFTISRDNSKNTLYLQMNSLRAEDTAVYYCARAYDTLTGYRAQKYGMDVWGQGTTVTVSS VL: DIQMTQSPSTLSASVGDRVTITCRASQRISTWLAWYQQKPGKAPKLLINEASRLESGVPSRFSGSGSGTEFTLTISSLQPDDFATYYCQQYNSYWTFGQGTKVEIK",binds
20,"CL-512011 (antibody, V domains shown) VH: QVQLVESGGGVVQPGRSLRLSCVTSGFTFSSFGMHWVRQAPGKGLEWVALIWYDGSHKFYADSLTGRFTISRDNSKNTLYLQMNSLRVEDTAVYYCARAHAVTTANDKYGTDVWGQGTTVNVSP VL: DIQMTQSPSTLSASVGDRVTITCRASQSISSWLAWYQHKPGNAPKLLIYKASNLESGVPSRFSGSGSGTEFTLTISSLQPDDFATYFCQQYNSYWTFGQGTKVEVK",binds
21,"CL-512319 (antibody, V domains shown) VH: QVQLVESGGGVVQPGRSLRLSCAASGFTFSNFGMHWVRQAPGKGLEWVAVIWYDGSHKFYADSLKGRFTISRDNSKNTLYLQMNNLRAEDTAVYYCARAHPVTTDYDKYGMDVWGQGTTVTVSS VL: DIQMTQSPSTLSSSVGDRVTITCRASQSISIWLAWIQQKPGKAPKLLIYKASSLESGVPSRFSGSGSGTEFTLTISSLQPDDFATYYCQQFYSYWTFGLGTKVEIK",binds
22,"CL-512564 (antibody, V domains shown) VH: QVQLVESGGGVVQPGRSLRLSCAASGFTFSNSGMHWVRQAPGKGLEWVAIIWYDGSHKFYADSVKGRFTISRDNSKNTLYLQMNSLRIEDTAMYYCVRSYNWNYPVRGDYKYGMDVWGQGTTVTVSS VL: DIQMTQSPSTLSASVGDRVTITCRASQSISSWLAWFQQKPGKAPNLLIYMASSLQSGVPSRFSGSGSGTEFTLTISSLQPDDFATYYCQQFNTYWTFGQGTKVEIK",binds
